# Data taken from paper PMC314469, “Protein Interaction Networks by Proteome Peptide Scanning” (PLoS Biology, 2004).
# T1: Boi1 SH3 (BOI1_YEAST), P38041
# T1 chain: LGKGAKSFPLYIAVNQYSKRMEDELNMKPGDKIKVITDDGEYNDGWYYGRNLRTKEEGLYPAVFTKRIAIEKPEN
# T2: Yhr016c SH3 (YSC84_YEAST), P32793
# T2 chain: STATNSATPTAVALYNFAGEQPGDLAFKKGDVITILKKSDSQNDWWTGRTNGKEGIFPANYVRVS
# T3: Yfr024 SH3 (LSB3_YEAST), P43603
# T3 chain: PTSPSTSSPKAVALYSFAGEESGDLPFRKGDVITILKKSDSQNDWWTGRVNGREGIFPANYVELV
# T4: Myo5 SH3 (MYO5_YEAST), Q04439
# T4 chain: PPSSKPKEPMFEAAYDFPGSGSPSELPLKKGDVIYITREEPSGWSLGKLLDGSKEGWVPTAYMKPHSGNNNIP
# T5: Boi2 SH3 (BOI2_YEAST), P39969
# T5 chain: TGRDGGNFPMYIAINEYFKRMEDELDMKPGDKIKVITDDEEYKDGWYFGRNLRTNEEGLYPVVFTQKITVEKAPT
# T6: Rvs167 SH3 (RV167_YEAST), P39743
# T6 chain: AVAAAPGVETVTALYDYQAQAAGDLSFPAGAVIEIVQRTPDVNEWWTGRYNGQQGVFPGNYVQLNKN
# How the values were obtained:
# Experiment in all cases: SPOT array
# [1] = biological target: T1, Boi1 SH3 (BOI1_YEAST), P38041
# [2] = biological target: T2, Yhr016c SH3 (YSC84_YEAST), P32793
# [3] = biological target: Sho1 SH3 (SHO1_YEAST), P40073
# Sequence of Sho1 SH3 (SHO1_YEAST), P40073 (P40073 295-366): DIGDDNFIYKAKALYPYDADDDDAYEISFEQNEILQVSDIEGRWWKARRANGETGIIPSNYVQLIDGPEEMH
# [4] = biological target: T3, Yfr024 SH3 (LSB3_YEAST), P43603
# [5] = biological target: T4, Myo5 SH3 (MYO5_YEAST), Q04439
# [6] = biological target: T5, Boi2 SH3 (BOI2_YEAST), P39969
# [7] = biological target: T6, Rvs167 SH3 (RV167_YEAST), P39743
Binder,"normalised SPOT signal, Boehringer light units (BLU); mean over the file's lines of this peptide [1]","normalised SPOT signal, Boehringer light units (BLU); mean over the file's lines of this peptide [2]","normalised SPOT signal, Boehringer light units (BLU); mean over the file's lines of this peptide [3]","normalised SPOT signal, Boehringer light units (BLU); mean over the file's lines of this peptide [4]","normalised SPOT signal, Boehringer light units (BLU); mean over the file's lines of this peptide [5]","normalised SPOT signal, Boehringer light units (BLU); mean over the file's lines of this peptide [6]","normalised SPOT signal, Boehringer light units (BLU); mean over the file's lines of this peptide [7]"
PELAKNSPLAPIKK [YLL021W 1081-1094],685,14.6,54.8,69.3,125,0,31.5
PFIRRYTPLKPITK [YKR093W 410-423],529,91.6,59,624,649,67.8,585
NTINKSNPQGPSDN [YMR067C 383-396],310,46.5,57.6,163,76.2,30.9,93.5
PEWRRPHPNIPDAK [YJR035W 269-282],1280,145,9.9,1150,183,40.3,94.1
NVLLKAKPNDPAAT [YGR123C 104-117],1780,310,126,63.4,156,29.5,121
NTVEKLQPGLPVII [YBR056W 255-268],41,12,2.8,33.6,280,33.2,16.6
NTIIKLFPYIPIPV [YLR142W 90-103],88.2,211,42.7,84.5,204,29.7,60.5
PDLNKRPPREPIEF [YDR195W 471-484],114,4.6,69.6,268,192,10.6,27.8
NTIIKFDPGRPIYN [YKL178C 251-264],49.7,10.4,144,63.3,272,17.6,72.3
PFLIKFTPKFPQSI [YMR156C 9-22],65,27.7,97.2,116,974,0,147

# Next, values leading:
"normalised SPOT signal, Boehringer light units (BLU); mean over the file's lines of this peptide [1]","normalised SPOT signal, Boehringer light units (BLU); mean over the file's lines of this peptide [2]","normalised SPOT signal, Boehringer light units (BLU); mean over the file's lines of this peptide [3]","normalised SPOT signal, Boehringer light units (BLU); mean over the file's lines of this peptide [4]","normalised SPOT signal, Boehringer light units (BLU); mean over the file's lines of this peptide [5]","normalised SPOT signal, Boehringer light units (BLU); mean over the file's lines of this peptide [6]","normalised SPOT signal, Boehringer light units (BLU); mean over the file's lines of this peptide [7]",Binder
383,62,483,565,580,32.8,36.2,PSKKKSKPKVPAKN [YNL106C 1153-1166]
158,5.1,16400,93.9,164,0.9,34.3,PANPKILPKIPSGA [YPL137C 1165-1178]
1110,311,75.6,116,154,62.6,62.5,NTLLKVVPQEPTAV [YPR029C 360-373]
618,31.8,69.5,89.7,253,0,80.9,PESAKSNPNSPRLK [YOR231W 8-21]
58.5,178,70,323,318,59.3,129,NYHHRETPPPPPSN [YPL055C 201-214]
228,296,35.5,241,151,35,251,NSVIRGSPGLPDTL [YPL066W 13-26]
